Test results reported in article PMC6624373.
Several values for one entry are separate records, joined by “and”; a condition that tells them apart may be missing. Equal entries are not always repeated.

Experiments:
Settings in all cases: remark: other sources report otherwise
[1] = target: T1, lamin A (human, mature form, without tags, wild type) (human), P02545; experiment: AUC; sedimentation velocity, 0.3 mg/mL lamin A in Tris or NaPi buffer, 45,000 rpm, 20 °C, interference optics, c(s) model
T1 chain: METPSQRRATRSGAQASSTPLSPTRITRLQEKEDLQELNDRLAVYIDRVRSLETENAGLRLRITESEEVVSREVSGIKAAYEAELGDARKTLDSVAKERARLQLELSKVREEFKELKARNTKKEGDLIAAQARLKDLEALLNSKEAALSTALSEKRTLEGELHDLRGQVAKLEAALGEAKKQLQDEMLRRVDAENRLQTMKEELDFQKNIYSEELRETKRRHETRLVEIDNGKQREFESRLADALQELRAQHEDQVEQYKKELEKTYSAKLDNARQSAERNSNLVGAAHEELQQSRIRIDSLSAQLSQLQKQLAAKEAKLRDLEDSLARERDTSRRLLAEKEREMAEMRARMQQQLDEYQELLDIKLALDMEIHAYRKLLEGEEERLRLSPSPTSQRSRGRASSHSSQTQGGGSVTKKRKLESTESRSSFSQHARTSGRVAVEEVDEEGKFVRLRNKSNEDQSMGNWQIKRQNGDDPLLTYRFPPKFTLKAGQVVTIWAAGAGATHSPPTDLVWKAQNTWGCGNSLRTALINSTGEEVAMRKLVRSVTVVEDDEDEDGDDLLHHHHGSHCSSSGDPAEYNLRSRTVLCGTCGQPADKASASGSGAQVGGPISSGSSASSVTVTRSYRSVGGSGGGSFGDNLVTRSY

[2] = target: T1, lamin A (human, mature form, without …); experiment: rotary metal shadowing EM; un-cross-linked lamin A at 0.1 mg/mL in Tris buffer (25 mM Tris, 250 mM NaCl, pH 8.0) or NaPi buffer (100 mM NaPi, 250 mM NaCl, pH 8.0), 30% glycerol, sprayed on mica; dimers and head-to-tail tetramers
[3] = target: T1, lamin A (human, mature form, without …); experiment: cross-linking; 0.4 mg/mL lamin A in NaPi buffer, EDC:S-NHS (1:4:8.8 by weight lamin A:EDC:S-NHS), 30 min, room temperature; product bands resolved by SDS-PAGE, gel-extracted and seen by rotary metal shadowing EM
[4] = target: T2, 6xHis-tagged lamin A (human, mature form) (human), P02545; experiment: pull-down; Ni-NTA pull-down of a 1:1 mix of un-tagged and 6xHis-tagged lamin A monomers after gel-extraction and refolding
T2 chain: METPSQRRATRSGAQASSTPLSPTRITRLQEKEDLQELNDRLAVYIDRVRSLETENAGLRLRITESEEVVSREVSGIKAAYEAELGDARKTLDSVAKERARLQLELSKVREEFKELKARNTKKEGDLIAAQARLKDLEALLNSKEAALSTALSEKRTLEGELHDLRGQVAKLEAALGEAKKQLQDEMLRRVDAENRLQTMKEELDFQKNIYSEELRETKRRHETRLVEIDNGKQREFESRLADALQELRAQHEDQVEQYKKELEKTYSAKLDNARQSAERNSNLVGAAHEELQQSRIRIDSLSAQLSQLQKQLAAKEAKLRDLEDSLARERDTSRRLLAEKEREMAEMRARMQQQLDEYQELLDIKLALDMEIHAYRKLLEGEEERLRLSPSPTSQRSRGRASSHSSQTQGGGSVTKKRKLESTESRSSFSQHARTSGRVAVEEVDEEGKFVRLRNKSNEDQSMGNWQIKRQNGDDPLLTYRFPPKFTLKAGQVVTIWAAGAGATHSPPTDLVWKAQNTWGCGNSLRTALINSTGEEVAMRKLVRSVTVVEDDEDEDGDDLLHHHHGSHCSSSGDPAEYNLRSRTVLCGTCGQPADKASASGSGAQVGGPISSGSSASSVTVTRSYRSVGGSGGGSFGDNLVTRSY

[5] = target: T1, lamin A (human, mature form, without …); experiment: AUC; sedimentation velocity, 0.3 mg/mL lamin A in Tris or NaPi buffer, 45,000 rpm, 20 °C, interference optics, c(s) model

stoichiometry N [1]: 4
dimers seen per head-to-tail tetramer (EM) (dimers per tetramer) [2]: 20 to 25
stoichiometry N [2]: 2 and 4
stoichiometry N [3]: 2 and 4
percent of un-tagged lamin A retained on the beads [4]: 50%
stoichiometry N [5]: 2
B1: lamin A (human, mature form, without tags, wild type), P02545 1-646 (natural protein)
chain: METPSQRRATRSGAQASSTPLSPTRITRLQEKEDLQELNDRLAVYIDRVRSLETENAGLRLRITESEEVVSREVSGIKAAYEAELGDARKTLDSVAKERARLQLELSKVREEFKELKARNTKKEGDLIAAQARLKDLEALLNSKEAALSTALSEKRTLEGELHDLRGQVAKLEAALGEAKKQLQDEMLRRVDAENRLQTMKEELDFQKNIYSEELRETKRRHETRLVEIDNGKQREFESRLADALQELRAQHEDQVEQYKKELEKTYSAKLDNARQSAERNSNLVGAAHEELQQSRIRIDSLSAQLSQLQKQLAAKEAKLRDLEDSLARERDTSRRLLAEKEREMAEMRARMQQQLDEYQELLDIKLALDMEIHAYRKLLEGEEERLRLSPSPTSQRSRGRASSHSSQTQGGGSVTKKRKLESTESRSSFSQHARTSGRVAVEEVDEEGKFVRLRNKSNEDQSMGNWQIKRQNGDDPLLTYRFPPKFTLKAGQVVTIWAAGAGATHSPPTDLVWKAQNTWGCGNSLRTALINSTGEEVAMRKLVRSVTVVEDDEDEDGDDLLHHHHGSHCSSSGDPAEYNLRSRTVLCGTCGQPADKASASGSGAQVGGPISSGSSASSVTVTRSYRSVGGSGGGSFGDNLVTRSY
